From US20260234660A1, “TREATMENT OF MUSCLE RELATED DISORDERS WITH ANTI-HUMAN CACNG1 ANTIBODIES” (Regeneron Pharmaceuticals, Inc., priority 2023, published 2026) come the findings set out here.

One assay deals with T1, human CACNG1 nanodisc (Homo sapiens, UniProt Q06432).
T1 construct: made in house
As to the kind of experiment: Biacore binding kinetics of anti-CACNG1 monoclonal antibodies to human CACNG1 nanodisc, antigen capture format. The conditions noted are these: 25° C., 1:1 binding model. On the procedure:
Equilibrium dissociation constants (KD values) for nanodisc embedded human CACNG1 expressed with a C-terminal PADRE-Flag-His tag (human CACNG1 nanodisc) binding to purified anti-hCACNG1 antibodies were determined using a real-time surface plasmon resonance biosensor technology with a Biacore T200 instrument. The CM5 Biacore sensor surface was derivatized by amine coupling with a monoclonal mouse anti-His antibody (Cytiva; Marlborough, MA). All Biacore binding studies were performed in a buffer composed of 0.01M HEPES, 0.15M NaCl, 1 mM CaCl2), 0.5 mM MgCl2, pH 7.4 (HBS-N++ running buffer). Different concentrations of anti-hCACNG1 antibodies (ranging from 300 nM to 12 nM in 5-fold serial dilutions) prepared in HBS-N++ running buffer were injected over the captured human CACNG1 nanodisc at a flow rate of 30 μL/minute. Antibody association was monitored for 2 minutes while dissociation was monitored in HBS-N++ running buffer for 5 minutes. At the end of each cycle, the human CACNG1 nanodisc capture surface was regenerated using three 10 second injections of 10 mM Gly pH1.5. All binding kinetics experiments were performed at 25° C.
The specific SPR-Biacore sensorgrams were obtained by a double referencing procedure. The double referencing was performed by first subtracting the signal of each injection over a reference surface (anti-His) from the signal over the experimental surface (anti-His captured human CACNG1 nanodisc) thereby removing contributions from refractive index changes. In addition, running buffer injections were performed to allow subtraction of the signal changes resulting from the dissociation of captured antibodies from the coupled anti-His surface. Kinetic association (ka) and dissociation (kd) rate constants were determined by fitting the real-time sensorgrams to a 1:1 binding model using Scrubber v2.0c curve fitting software. Binding dissociation equilibrium constants (KD) and dissociative half-lives (t1/2) were calculated from the kinetic rate constants as: […]
A general note: Surface plasmon resonance follows binding to a sensor surface in real time, without labels.

The next assay deals with human myotubes. Briefly: Acetylcholine-induced calcium flux assay in human myotubes (FLIPR). The conditions noted are these: antibody 0.01 μM to 1 μM, 1 hour incubation, 20 uM acetylcholine. Format: cell-based. On the procedure:
CACNG1 is the γ1 subunit of the skeletal muscle specific L-type calcium channel, (dihydropyridine receptor), though genetic deletion of CACNG1 appears to have no major impact on skeletal muscle function. To determine whether antibodies that bind CACNG1 impact muscle function, a calcium flux assay was performed on human myotubes that were incubated with CACNG1 antibodies to determine whether these antibodies affect acetylcholine-induced calcium release.
Human skeletal myoblasts (Cook Myosite, Inc.) were plated at 10,000 cells/well of a 96-well plate and were differentiated for 7 days into myotubes. On the final day of differentiation, media was replaced with 50 μL of FLIPR calcium 5 dye with probenecid (Invitrogen) and 50 uL of assay buffer (0.1% BSA-DMEM) per well. CACNG1 and isotype control antibodies were serial diluted in assay buffer and added to the cells and incubated at 37° C. in a 5% CO2 incubator for 1 hour prior to the calcium flux assay. Nicardipine hydrochloride (Sigma) was added to untreated wells to serve as a control for calcium channel blockade. After 1 hour, acetylcholine (Sigma) was added at a 20 uM final concentration to induce myotube calcium release, and plates were assayed on a FLIPR Tetra (Molecular Devices, LLC).
In general terms: Calcium assays in cells follow changes in intracellular calcium, usually with a dye or a luminescent sensor.

For a further assay, the system named is CACNG1^Hu/Hu myofibers. As to the kind of experiment: Antibody binding to single myofibers ex vivo. Format: cell-based, mouse. The conditions noted are these: 100 nM antibody, 30 minutes. The protocol:
(§1) Following confirmation of CACNG1 antibody binding to human myotubes, a subset of antibodies was tested for binding to fully mature myofibers ex vivo. Single myofibers were isolated from either wildtype mice, mice that were homozygous for the deletion of CACNG1 (referred to as CACNG1 knockout mice), or mice that were homozygous for the expression of human CACNG1 in place of mouse CACNG1 (referred to as CACNG1^Hu/Hu). The gastrocnemius muscle was removed, collagenase digested, and single myofibers were isolated, washed, and incubated overnight at 37° C. at 5% C02, in DMEM+10% horse serum. Following overnight incubation, single myofibers were incubated with 100 nM of each CACNG1 antibody or an isotype control antibody for 30 minutes. Myofibers were then washed twice in DMEM+10% horse serum, and subsequently incubated with 10 ug/mL of fluorescent-conjugated secondary antibodies for 30 minutes, washed twice in DMEM+10% horse serum, and then fixed with 4% paraformaldehyde (PFA) for 15 minutes at room temperature. Single fibers were then washed twice with PBS, stained with Hoechst for 5 minutes, washed once more with PBS, then transferred to microscope slides, coverslipped, and imaged using a Zeiss LSM 710 confocal microscope.

The subject of assay [1] is wildtype or CACNG1 knockout myofibers. Briefly: Antibody binding to single myofibers ex vivo. Format: cell-based, mouse. The conditions noted are these: 100 nM antibody, 30 minutes. The protocol:
as §1

T1 sequence (Q06432 whole entry): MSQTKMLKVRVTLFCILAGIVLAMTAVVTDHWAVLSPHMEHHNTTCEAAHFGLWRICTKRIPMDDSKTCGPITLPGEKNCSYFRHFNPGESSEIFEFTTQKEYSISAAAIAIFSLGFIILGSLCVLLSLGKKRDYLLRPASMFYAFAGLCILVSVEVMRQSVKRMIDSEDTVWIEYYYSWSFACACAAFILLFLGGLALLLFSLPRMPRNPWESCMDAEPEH

B1: H2aM31944N: anti-hCACNG1 antibody, HCVR/LCVR SEQ ID NOs: 82/90 (antibody, V domains shown)
VH: QVQLVESGGGVVQPGRSLRLSCEASGITFRNYGMHWVRQAPGKGLEWVAVMWYDGSNKYYADSVKGRFTISRDNSKNTVYLQMNSLRAEDTAVYYCARRGHIATAAPFDYWGQGTLVTVSS
VL: DIQMTQSPSSLSASVGDRVTISCRASQSISSYLNWYQQKPGKAPKVLMYAASSLQSGVPSRFSGSGSGTDFTLTISSLQPEDFATYYCQQSYSTPPITFGQGTRLEIK
With B1, in the assay with human CACNG1 nanodisc, the “ka” value is 231000 M⁻¹ s⁻¹ and the “kd” value came to 0.00395 s⁻¹. The “effect on acetylcholine-induced calcium flux” value with human myotubes is “do not inhibit acetylcholine-induced calcium flux”.

B2: REGN10715: anti-hCACNG1 antibody, HCVR/LCVR SEQ ID NOs: 18/26, wildtype hIgG1 (antibody, V domains shown)
VH: QVQLQQWGAGLLKPSATLSRTCAVYGGSFSGYYWNWIRQSPGKGLEWIGEILHSGRTNYNPSLKSRVTISVDTSKNQFSLKLTSVTAADTAVYYCAGRIAARHGWFDPWGQGTLVTVSS
VL: DIQMTQSPSSVSTSVGDRVTISCRASQDIRKWLAWYQQKPGKAPKLLIYATSSLQSGVPSRFSGSGSGTDFTLTISSLQPEDFATYFCQQANSFPFTFGQGTKLEIK
modifications: hIgG1
Turning to B2, in the assay with human CACNG1 nanodisc, the “ka” value was found to be 152000 M⁻¹ s⁻¹ and the “kd” value is 0.000301 s⁻¹.

B3: REGN7660: anti-hCACNG1 antibody, HCVR/LCVR SEQ ID NOs: 130/138 (antibody, V domains shown)
VH: EVQLVESGGGLVQPGGSLKLSCTASGLTLSDSAMHWVRQASGKGLEWVGRIRNKANRYATEYAASVKGRFTISRDDSKNTAYLQMNSLKTEDTAVYYCTRNWKIFLFDYWGQGTLVTVSS
VL: EIVLTQSPGTLTLSPGERATLSCRASQSVGSKYLAWFQQKRGQAPRLLIYGASSRTSGIPDRISGSGSGTDFTLTISRLEPEDFAVYYCQQYGSSPWTFGQGTKVEIK
For B3, in the assay with human CACNG1 nanodisc, the “ka” value stood at 1.93e+06 M⁻¹ s⁻¹ and the “kd” value stood at 0.0243 s⁻¹.

B4: REGN10717: anti-hCACNG1 antibody, HCVR/LCVR SEQ ID NOs: 34/42, wildtype hIgG1 (antibody, V domains shown)
VH: QVQLVESGGGVVQPGRSLRLSCAASGFTFSTYGMHWVRQAPGKGLEWVAVIWHDGSDKYYVDSVKGRFSIARDNSKNTLYLQMNSLRVEDTGIYYCARRGIRGTVFDHWGLGTLVTVSS
VL: DIQMTQSPSTLSASVGDRVTLTCRASQSISNKLAWYQQKPGKAPNLLIYKASNLESGVPSRFSGSGSGTEFTLTISSLQPDDFATYYCQQYNSYSWTFGQGTKVEIK
modifications: hIgG1
Take B4: in the assay with human CACNG1 nanodisc, the “ka” value was 294000 M⁻¹ s⁻¹ and the “kd” value stood at 0.0304 s⁻¹.

B5: REGN10716: anti-hCACNG1 antibody, HCVR/LCVR SEQ ID NOs: 50/58, wildtype hIgG1 (antibody, V domains shown)
VH: QVQLQESGPGLVKPSETLSLTCTVSGDSINNYYWTWLRQPPGKGLEWIGYIYYSGSANYNPSLKSRVTISVDTSKNQFSLKLNSVTAADTAVYYCARGAVKYFRHWGQGTLVTVSS
VL: EIVLTQSPGTLSLSPGERATLSCRASQTINHNNLAWYQQRPGQAPRLLIYGASNRATAIPDRFSGSGSGTDFTLTISRLEPEDFEVYSCQQYGSLPLTFGGGTKVEIK
modifications: hIgG1
B5: in the assay with human CACNG1 nanodisc, the “ka” value was 730000 M⁻¹ s⁻¹ and the “kd” value came out at 8.36e-05 s⁻¹.

B6: H2aM31941N: anti-hCACNG1 antibody, HCVR/LCVR SEQ ID NOs: 114/122 (antibody, V domains shown)
VH: QVQLVQSGAEVKKPGASVKVSCKASGYAFTTYGITWVRQAPGQGLEWMGWISAYNGNTNYAEKVQGRFTMTTDTSTNTAYMELRSLRSDDTAVYFCARKGHYGSGTYYNPFGFDFWGQGTMVTVSS
VL: EIMLMQSPGTLSLSPGERATLSCRASQSVSSSYLAWYQQKPGQAPRLLIYGASSRATDIPDRFSGSGSGTDFTLTISRLEPEDFAVYFCQQYYGSPWTFGQGTKVEIK
As to B6, in the assay with human CACNG1 nanodisc, the “ka” value stood at 342000 M⁻¹ s⁻¹ and the “kd” value was 0.000406 s⁻¹. Moreover, in the assay on CACNG1^Hu/Hu myofibers, the “binding to CACNG1^Hu/Hu myofibers ex vivo” value is recorded as “demonstrated binding to CACNG1^Hu/Hu myofibers ex vivo”. In addition, the “binding to wildtype or CACNG1 knockout myofibers” value in assay [1] is recorded as “did not bind to wildtype or CACNG1 knockout myofibers”.

B7: REGN9909: anti-hCACNG1 antibody, HCVR/LCVR SEQ ID NOs: 146/154 (antibody, V domains shown)
VH: EVQLLESGGGLVQPGGSLRLSCAASGFTFNNYGMSWVRQGPGKGLEWVSSISGSGGTTFYADSVKGRFTISRDNSKNTLYLQMNSLRAEDTAVYYCGKGGYCSSSGCRHYGMDVWGQGTTVTVSS
VL: QSVLTQPPSASGTPGQRVTISCSGSSSNIGNNYIYWYQRLPGTTPKLLIYRNNQRPSGVPDRFSGSKSGTSASLAISGLRSEDEADYYCAAWDDTLSGYVFGTGTKVTVL
For the molecule B7, in the assay with human CACNG1 nanodisc, the “ka” value came to 331000 M⁻¹ s⁻¹ and the “kd” value turned out to be 0.00137 s⁻¹.

B8: REGN10713: anti-hCACNG1 antibody, HCVR/LCVR SEQ ID NOs: 162/170, wildtype hIgG1 (antibody, V domains shown)
VH: EVQLVESGGNLVQPGGSLRLSCAASGFTFTSHAMNWVRQAPGKGLEWVSVITGRGFDTHYADSVKGRFTISRDISKNTLYLQMNSLRAEDTAVYYCAKGLYDSGNYYIDYWGQGTLVTVSS
VL: QSVLTQPPSVSAAPGQKVTISCSGSSSNIGNNYVSWYQQLPGTAPKLLIYDNNKRPSGIPDRFSGSKSGTSATLGITGLQTGDEADYYCGTWDLSLSFNWVFGGGTKLTVL
modifications: hIgG1
Consider B8, for which, in the assay with human CACNG1 nanodisc, the “ka” value was 74200 M⁻¹ s⁻¹ and the “kd” value is 4.72e-05 s⁻¹.
